Data from article PMC5238595.

Assays:
[1] = target: A47934 PCP-X di-domain construct with maltose binding protein as N-terminal fusion partner (Streptomyces toyocaensis)
[2] = target: PCP-X construct from teicoplanin biosynthesis with MBP as N-terminal fusion partner (Actinoplanes teichomyceticus) (UniProt Q70AZ6)
[3] = target: hybrid PCP-X construct: A47934 PCP-domain and teicoplanin X-domain, with MBP as N-terminal fusion partner (Streptomyces toyocaensis | Actinoplanes teichomyceticus) (UniProt Q70AZ6)
[4] = target: hybrid PCP-X construct: teicoplanin PCP-domain and A47934 X-domain, with MBP as N-terminal fusion partner (Actinoplanes teichomyceticus | Streptomyces toyocaensis)

Sequence of UniProt Q70AZ6 (Q70AZ6 entry or part of it): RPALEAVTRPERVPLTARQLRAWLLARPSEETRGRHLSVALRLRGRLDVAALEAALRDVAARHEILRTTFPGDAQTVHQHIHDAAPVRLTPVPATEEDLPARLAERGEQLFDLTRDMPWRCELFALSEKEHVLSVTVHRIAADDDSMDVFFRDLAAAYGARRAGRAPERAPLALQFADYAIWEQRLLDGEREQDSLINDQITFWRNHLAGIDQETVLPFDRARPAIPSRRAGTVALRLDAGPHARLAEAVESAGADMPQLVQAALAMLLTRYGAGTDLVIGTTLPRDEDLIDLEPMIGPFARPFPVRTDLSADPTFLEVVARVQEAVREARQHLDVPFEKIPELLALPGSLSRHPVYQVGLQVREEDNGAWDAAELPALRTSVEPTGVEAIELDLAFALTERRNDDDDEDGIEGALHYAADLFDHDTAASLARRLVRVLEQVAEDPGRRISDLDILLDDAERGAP

StaF turnover activity (bicyclic product / sum of mono- and bicyclic product, HPLC-MS) on Act7-rac-Hpg7 bound to MBP-PCP-Xsta, with StaH (entry 4) [1]: 25.5%
StaF turnover activity (bicyclic product / sum of mono- and bicyclic product, HPLC-MS) on Tei7-L-Hpg7 bound to MBP-PCP-Xsta, with StaH (entry 1) [1]: 23.8%
StaF turnover activity (bicyclic product / sum of mono- and bicyclic product, HPLC-MS) on Act7-rac-Hpg7 bound to MBP-PCP-Xtei, with StaH (entry 8) [2]: 24.9%
StaF turnover activity (bicyclic product / sum of mono- and bicyclic product, HPLC-MS) on Tei7-L-Hpg7 bound to MBP-PCP-Xtei, with StaH (entry 5) [2]: 5.7%
StaF turnover activity (bicyclic product / sum of mono- and bicyclic product, HPLC-MS) on Act7-rac-Hpg7 bound to MBP-PCPsta-Xtei, with StaH (entry 12) [3]: 7.8%
StaF turnover activity (bicyclic product / sum of mono- and bicyclic product, HPLC-MS) on Tei7-L-Hpg7 bound to MBP-PCPsta-Xtei, with StaH (entry 9) [3]: 2.9%
StaF turnover activity (bicyclic product / sum of mono- and bicyclic product, HPLC-MS) on Act7-rac-Hpg7 bound to MBP-PCPtei-Xsta, with StaH (entry 16) [4]: 31.5%
StaF turnover activity (bicyclic product / sum of mono- and bicyclic product, HPLC-MS) on Tei7-L-Hpg7 bound to MBP-PCPtei-Xsta, with StaH (entry 13) [4]: 21.1%
Substance: StaF, the D-O-E ring forming Oxy enzyme (cytochrome P450) from A47934 biosynthesis
